# Patent US20240417436A1 (BRIGHT PEAK THERAPEUTICS, published 2024)
# *1 amine or outer side, *2 acyl side, *3 side chain or, on linkers, in order; H or OH if unused. Bridges are numbered along the chain shown (N, C = ends). Primed or numbered codes have the meaning given here. Side-chain parts run from the residue outwards. [ ]: non-standard residue; d: D form. Ygp″ = O-(PEG8-amino)-tyrosine (O-(8x polyethylene glycol-amino)-tyrosine); Yn3″ = O-(PEG9-azido)-tyrosine (O-(9x polyethylene glycol-azido)-tyrosine); Ygp = O-(8x polyethylene glycol-amino)-tyrosine; Yn3 = O-(9x polyethylene glycol-azido)-tyrosine; PABC = O=C(OCc1ccc(N[*:1])cc1)[*:2]; Ygp(3) = O-(PEG8-amino)-tyrosine; Yn3(3) = O-(PEG9-azido)-tyrosine; Cit = NC(=O)NCCC[C@H](N)C(=O)O; hSer = N[C@@H](CCO)C(=O)O; Nle = CCCC[C@H](N)C(=O)O; Dab = NCC[C@H](N)C(=O)O
# T1: IL-2 receptor βγ complex on pan T cells (human, UniProt P14784 27-551; P31785 23-369)
# T1 sequence (looked up) 1: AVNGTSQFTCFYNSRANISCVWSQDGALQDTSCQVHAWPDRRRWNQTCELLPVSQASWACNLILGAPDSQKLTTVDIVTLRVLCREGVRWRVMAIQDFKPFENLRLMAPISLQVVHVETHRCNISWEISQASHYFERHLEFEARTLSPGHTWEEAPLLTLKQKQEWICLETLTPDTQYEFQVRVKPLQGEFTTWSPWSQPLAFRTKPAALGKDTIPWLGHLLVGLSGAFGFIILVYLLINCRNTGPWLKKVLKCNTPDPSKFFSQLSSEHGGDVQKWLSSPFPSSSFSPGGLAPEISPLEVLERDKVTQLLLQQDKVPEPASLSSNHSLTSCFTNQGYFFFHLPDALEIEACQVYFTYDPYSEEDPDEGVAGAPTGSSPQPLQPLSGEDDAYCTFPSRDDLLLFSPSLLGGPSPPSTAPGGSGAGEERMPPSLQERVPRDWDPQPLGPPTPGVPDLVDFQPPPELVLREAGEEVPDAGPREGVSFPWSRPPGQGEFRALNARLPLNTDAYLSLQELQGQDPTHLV
# T1 sequence (looked up) 2: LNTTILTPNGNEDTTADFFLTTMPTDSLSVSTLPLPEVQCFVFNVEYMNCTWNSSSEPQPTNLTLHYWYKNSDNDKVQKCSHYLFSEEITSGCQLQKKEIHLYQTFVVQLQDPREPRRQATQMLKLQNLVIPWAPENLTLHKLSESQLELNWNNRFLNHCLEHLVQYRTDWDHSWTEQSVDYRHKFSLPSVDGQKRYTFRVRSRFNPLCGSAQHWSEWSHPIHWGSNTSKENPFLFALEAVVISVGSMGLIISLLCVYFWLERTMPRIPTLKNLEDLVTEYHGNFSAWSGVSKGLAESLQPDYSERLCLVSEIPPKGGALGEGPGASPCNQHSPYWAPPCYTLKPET
# T2: recombinant human IL-2 receptor beta containing a His-tag and Avi-Tag (R&D Systems #AVI10459) (human, UniProt P14784 27-239)
# T2 construct: bought protein, held on the Octet SAX2 sensor; also called CD122; IL-2Rβ
# T2 sequence (looked up): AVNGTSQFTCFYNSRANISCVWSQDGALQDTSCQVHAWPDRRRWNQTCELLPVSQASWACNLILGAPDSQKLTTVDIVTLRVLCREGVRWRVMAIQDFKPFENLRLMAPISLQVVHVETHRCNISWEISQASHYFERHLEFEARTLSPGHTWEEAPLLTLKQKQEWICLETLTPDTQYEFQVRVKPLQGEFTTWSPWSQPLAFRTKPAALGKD
# T3: Avi-Tag Fc with human IL-2R beta and IL-2R gamma attached (Acrobiosystems ACRB-ILG-H82F3-25UG) (human, UniProt P14784 27-239; P31785 23-262)
# T3 construct: bought heterodimer; also called CD122 CD132; CD122/CD132 complex
# T3 sequence (looked up) 1: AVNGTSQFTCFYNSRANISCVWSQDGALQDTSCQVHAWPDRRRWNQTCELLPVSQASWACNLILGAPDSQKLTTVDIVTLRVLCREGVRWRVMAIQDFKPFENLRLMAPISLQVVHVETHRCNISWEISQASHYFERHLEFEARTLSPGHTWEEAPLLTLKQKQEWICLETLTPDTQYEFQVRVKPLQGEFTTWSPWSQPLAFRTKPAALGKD
# T3 sequence (looked up) 2: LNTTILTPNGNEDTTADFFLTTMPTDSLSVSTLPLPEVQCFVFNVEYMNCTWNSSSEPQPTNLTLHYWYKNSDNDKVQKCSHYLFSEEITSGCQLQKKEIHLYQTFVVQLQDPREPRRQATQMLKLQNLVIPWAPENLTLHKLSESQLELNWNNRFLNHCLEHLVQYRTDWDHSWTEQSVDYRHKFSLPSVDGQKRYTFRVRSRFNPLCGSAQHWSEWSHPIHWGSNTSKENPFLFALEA
# Assays:
# [1] = target: T1, IL-2 receptor βγ complex on pan T cells; assay: cell-based or functional assay
# [2] = target: T2, recombinant human IL-2 receptor beta …; assay: BLI (Octet), receptor on SAX2 sensor, IL-2 as analyte; construct CMP-145
# Description: (§1) Bilayer interferometry (BLI) assays were used to measure the binding constants between activatable IL-2 polypeptides (and activated versions thereof) to IL-2 receptor subunits or receptor complexes. BLI assays were conducted on an Octet® R8 instrument. Assay plates were 96 well, polypropylene, F-bottom (chimney well), black microplates (Greiner Bio-one, Cat. No: 655209). The biosensors were Octet® SAX2 (Sartorius, Cat. No: 18-5136). The assay buffer was 1× Kinetic Buffer (Sartorius, Cat. no: 18-5136) or Phosphate Buffered Saline (PBS) that contained 0.02% (v: v) Tween 20 (Polysorbate 20) and 0.1% (w/v) bovine serum albumin (BSA). The sensor was regenerated between measurements in 10 mM glycine pH 2.7 buffer.
# (§2) Sensor attached receptors were either recombinant human IL-2 receptor beta containing a His-tag and Avi-Tag™ (R&D Systems™ #AVI10459) or an Avi-Tag™ Fc with human IL-2R beta and IL-2R gamma attached (Acrobiosystems Cat. no: ACRB-ILG-H82F3-25UG). Receptors were reconstituted from lyophilized powder to 500 μg/ml in PBS. Analytes were diluted in Kinetic buffer to 300 nM, then serially diluted to lower concentrations.
# [3] = target: T3, Avi-Tag Fc with human IL-2R beta and …; assay: BLI (Octet), receptor on SAX2 sensor, IL-2 as analyte
# Description: as §1, §2
# [4] = target: T1, IL-2 receptor βγ complex on pan T cells; assay: cell-based or functional assay; remark: listed apart in the source
# [5] = target: T2, recombinant human IL-2 receptor beta …; assay: BLI (Octet), receptor on SAX2 sensor, MMP2-treated IL-2 as analyte
# Description: as §1, §2
# [6] = target: T3, Avi-Tag Fc with human IL-2R beta and …; assay: as above
# Description: as §1, §2
# [7] = target: T2, recombinant human IL-2 receptor beta …; assay: BLI (Octet), receptor on SAX2 sensor, IL-2 as analyte
# Description: as §1, §2
Binder,koff [3],"Average EC50, pSTAT5 assay in pan T cells, MMP2 cleaved molecule [4]",Kd [5],koff [5],kon [5],Kd [6],koff [6],kon [6],Kd [7],koff [7],kon [7],Kd [3],kon [3],also measured
CMP-130 (ligand) APTSSSTKKTQLQLE[Dab]LLLDLQ[Nle]ILNGINNYKNPKLTR[Nle]L[hSer][Yn3(3)]KF[Ygp(3)][Nle]PKKATELKHLQCLEEELKPLEEVL[hSer]LAQSKNFHLRPRDLISNINVIVLELKGSETTF[hSer]CEYADETATIVEFLNRWITFSQSIISTLT,–,–,–,–,–,–,–,–,–,–,–,–,–,"Average EC50, pSTAT5 assay in pan T cells, intact molecule [1]: 66.8 nM"
"CMP-145 (ligand, disulfide 58-105; not fully specified (residue 23); also: branched 27x PEG chains on the attached KKPLGLAG peptide, places not given here) APTSSSTKKTQLQLEHLLLDLQKILNGINNYKNPKLTR[Nle]L[hSer][Yn3]KF[Ygp][Nle]PKKATELKHLQCLEEELKPLEEVL[hSer]LAQSKNFHLRPRDLISNINVIVLELKGSETTF[hSer]CEYADETATIVEFLNRWITFSQSIISTLT",0.00117 s⁻¹,–,–,–,–,–,–,–,–,–,–,–,–,Kd [2]: 1.83 µM
"CMP-138 (ligand, disulfide 58-105; bridge N-29; not fully specified (residue 29, bridges)) APTSSSTKKTQLQLEHLLLDLQ[Nle]ILNGIENYKNPKLTR[Nle]L[hSer][Yn3]KF[Ygp][Nle]PKKATELKHLQCLEEELKPLEEVL[hSer]LAQSKNFHLRPRDLISNINVIVLELKGSETTF[hSer]CEYADETATIVEFLNRWITFSQSIISTLT",0.00284 s⁻¹,–,–,–,–,–,–,–,0.0117 µM,0.0105 s⁻¹,898000 M⁻¹ s⁻¹,0.0123 µM,232000 M⁻¹ s⁻¹,–
"CMP-131 (ligand, not fully specified; ends and bridges not checked) APTSSSTKKTQLQLEK([PABC-Cit-Val-Glu-Ac])LLLDLQ[Nle]ILNGINNYKNPKLTR[Nle]L[hSer][Yn3″]KF[Ygp″][Nle]PKKATELKHLQCLEEELKPLEEVL[hSer]LAQSKNFHLRPRDLISNINVIVLELKGSETTF[hSer]CEYADETATIVEFLNRWITFSQSIISTLT",–,–,–,–,–,–,–,–,–,–,–,–,–,"Average EC50, pSTAT5 assay in pan T cells, intact molecule [1]: 56.9 nM"
"CMP-136 (ligand, disulfide 58-105; bridge N-29; not fully specified (residue 29, bridges); also: cleavable peptide sequence not given here) APTSSSTKKTQLQLEHLLLDLQ[Nle]ILNGIENYKNPKLTR[Nle]L[hSer][Yn3″]KF[Ygp″][Nle]PKKATELKHLQCLEEELKPLEEVL[hSer]LAQSKNFHLRPRDLISNINVIVLELKGSETTF[hSer]CEYADETATIVEFLNRWITFSQSIISTLT",0.00498 s⁻¹,–,–,–,–,–,–,–,0.00844 µM,0.00767 s⁻¹,909000 M⁻¹ s⁻¹,0.0126 µM,396000 M⁻¹ s⁻¹,–

# More lines, main results first:
koff [3],"Average EC50, pSTAT5 assay in pan T cells, MMP2 cleaved molecule [4]",Kd [5],koff [5],kon [5],Kd [6],koff [6],kon [6],Kd [7],koff [7],kon [7],Kd [3],kon [3],Binder,also measured
–,6.3 nM,1370 µM,1.08 s⁻¹,789 M⁻¹ s⁻¹,0.00227 µM,0.00164 s⁻¹,602000 M⁻¹ s⁻¹,–,–,–,–,–,"CMP-168, MMP2 cleaved (ligand, disulfide 58-105 (inferred); not fully specified (residues 9, 23); also: cleaved by MMP2, bridge opened, remnants on Lys9 and Glu23 not defined) APTSSSTKKTQLQLEHLLLDLQEILNGINNYKNPKLTR[Nle]L[hSer][Yn3]KF[Ygp][Nle]PKKATELKHLQCLEEELKPLEEVL[hSer]LAQSKNFHLRPRDLISNINVIVLELKGSETTF[hSer]CEYADETATIVEFLNRWITFSQSIISTLT",–
0.000786 s⁻¹,–,–,–,–,–,–,–,0.0595 µM,0.0122 s⁻¹,206000 M⁻¹ s⁻¹,0.00919 µM,85500 M⁻¹ s⁻¹,"CMP-319 (ligand, lactam N-33; not fully specified (bridges)) RGRRVANLVGAPTSSSTKKTQLQLEHLLLDLQEILNGINNYKNPKLTR[Nle]L[hSer][Yn3(3)]KF[Ygp(3)][Nle]PKKATELKHLQCLEEELKPLEEVL[hSer]LAQSKNFHLRPRDLISNINVIVLELKGSETTF[hSer]CEYADETATIVEFLNRWITFSQSIISTLT",–
–,4.36 nM,0.794 µM,0.225 s⁻¹,283000 M⁻¹ s⁻¹,0.00121 µM,0.000684 s⁻¹,567000 M⁻¹ s⁻¹,–,–,–,–,–,"CMP-166, MMP2 cleaved (ligand, not fully specified; as CMP-166 but cleavable peptide cut by MMP2 (macrocycle opened); cut site not given) APTSSSTKKTQLQLEHLLLDLQKILNGINNYKNPKLTRXLXYKFYXPKKATELKHLQCLEEELKPLEEVLXLAQSKNFHLRPRDLISNINVIVLELKGSETTFXCEYADETATIVEFLNRWITFSQSIISTLT",–
–,5.31 nM,0.658 µM,0.227 s⁻¹,345000 M⁻¹ s⁻¹,0.00155 µM,0.000923 s⁻¹,594000 M⁻¹ s⁻¹,–,–,–,–,–,"CMP-167, MMP2 cleaved (ligand, not fully specified; as CMP-167 but cleavable peptide cut by MMP2 (macrocycle opened); cut site not given) APTSSSTKKTQLQLEHLLLDLQKILNGINNYKNPKLTRXLXYKFYXPKKATELKHLQCLEEELKPLEEVLXLAQSKNFHLRPRDLISNINVIVLELKGSETTFXCEYADETATIVEFLNRWITFSQSIISTLT",–
–,1.42 nM,1.11 µM,0.237 s⁻¹,213000 M⁻¹ s⁻¹,0.00187 µM,0.00114 s⁻¹,608000 M⁻¹ s⁻¹,–,–,–,–,–,"CMP-165, MMP2 cleaved (ligand, disulfide 58-105 (inferred); not fully specified (residue 23, N-terminus); also: MMP2 cleaved, ring opened, cut site not given here, peptide remnants on N-terminus (via glutaryl) and on Lys23 side chain) APTSSSTKKTQLQLEHLLLDLQKILNGINNYKNPKLTR[Nle]L[hSer][Yn3]KF[Ygp][Nle]PKKATELKHLQCLEEELKPLEEVL[hSer]LAQSKNFHLRPRDLISNINVIVLELKGSETTF[hSer]CEYADETATIVEFLNRWITFSQSIISTLT",–
